Assays:
HSV-1 [1] = test: In vivo rabbit eye model of HSV infection; settings: for dendritic or geographic ulceration and clinical appearance: vs controls (PBS or peg-BSA)
Description: FIG. 10 is line graph showing viral production in a rabbit eye model for eyes infected with HSV-1 and treated with controls (peg-BSA and PBS), 1% triflourothymidine, or peg-Arginase I, according to an example embodiment of the present invention.
FIG. 11 is a series of images of rabbit eyes infected with HSV-1 and treated with controls (peg-BSA or PBS), 1% triflourothymidine, or peg-Arginase I, according to an example embodiment of the present invention.
In an in vivo rabbit eye model system, the ability of peg-Arginase I to prevent HSV-mediated inflammation-associated disease was assessed relative to a commonly prescribed ophthalmic antiviral-1% triflourothymidine (TFT). Rabbit eyes were infected with HSV, and infection and disease were allowed to establish prior to beginning treatment. […] FIG. 11 depicts representative overall clinical presentation of ocular herpetic disease. In either of the control (PBS or peg-BSA) treatment groups, severe blinding disease was observed following infection, with presence of severe inflammatory discharge and blinding epithelial defects observed by slit lamp examination.

[2] = test system: acyclovir resistant mutant HSV; test: Cell cultures infected with acyclovir resistant mutant HSV: infectious HSV yield; type: cell-based; settings: two different drug resistant mutant HSV viruses
Description: FIG. 8A is a bar graph showing infectious HSV yield for cell cultures infected with an acyclovir resistant mutant HSV, according to an example embodiment of the present invention.
FIG. 8B is a bar graph showing infectious HSV yield for cell cultures infected with a different acyclovir resistant mutant HSV, according to an example embodiment of the present invention.
(§1) In another exemplary embodiment, the present disclosure may be employed to treat pathogenic infections of the eye (e.g., herpes simplex virus types 1 and 2 (HSV-1 and HSV-2) and Adenovirus infections). Embodiments may be used as a treatment against wild-type and/or drug resistant herpes simplex virus (HSV) replication and/or transmission, as well as HSV-mediated inflammation-associated ocular disease.

Adenovirus Type 5 = Adenovirus Type 5 pink-eye clinical disease rabbit eye model; type: in vivo; settings: treatment initiated eight hours after infection; four times daily
Description: FIG. 19 is a series of images of rabbit eyes with an Adenoviral infection and treated with control (peg-BSA), cidofovir, or peg-Arginase I drops, according to an example embodiment of the present invention.
In an in vivo rabbit eye model system, the ability of peg-Arginase I to prevent inflammation-associated disease following Adenoviral infection was examined. Rabbit eyes were infected with Adenovirus and eight hours later treatment was initiated. Eyes were treated four times daily with 10 U peg-Arginase I per 50 μl dose. […] FIGS. 20 through 24 illustrate that peg-Arginase I suppresses clinical presentation of disease at all treatment days, including suppression of ocular inflammation and neovascularization. […] These properties of peg-Arginase I illustrate the present invention's utility in preventing numerous vision-threatening ocular diseases that present clinically as inflammation or neovascularization of the eye.

[3] = test system: surgically-induced corneal lesions; test: Surgically debrided cornea (corneal wound healing) rabbit eye model; type: in vivo
Description: FIG. 1A is a series of images of rabbit eyes with an 8 mm ([…]) region of cornea surgically debrided and treated with peg vehicle or peg-Arginase I, according to an example embodiment of the present invention.
In an exemplary embodiment, the present disclosure may be employed to treat ocular lesions, which may be caused by accidental or surgical trauma. Application of peg-Arginase I to a corneal lesion accelerates wound healing while reducing or eliminating ocular inflammation, neovascularization and inflammatory discharge.

HSV-1 [4] = test: HSV-1 infected cell cultures: infectious viral yield, cytopathic effects, cell-to-cell spread; type: cell-based
Description: FIG. 5 is a bar graph showing infectious viral yield for cell cultures infected with HSV-1 and treated with a vehicle (peg vehicle), peg-Arginase I, or different concentrations of acyclovir, according to an example embodiment of the present invention.
FIG. 6 is a series of images showing virus-mediated cytopathic effects on cell cultures treated as described in FIG. 5.
FIG. 7A is a series of images of HSV-plaques showing capacity for cell-to-cell spread following treatment with a vehicle (peg vehicle), peg-Arginase I, or acyclovir, according to an example embodiment of the present invention.
as §1

HSV-1 [5] = test: Replication of HSV-1 in primary corneal epithelial cell cultures; type: cell-based; settings: primary human corneal epithelial cells
Description: FIG. 9 is a bar graph showing replication of HSV-1 in primary corneal epithelial cell cultures treated with vehicle or peg-Arginase I, according to an example embodiment of the present invention.
as §1

Adenovirus = test: Cell cultures infected with Adenovirus: cytopathic effects; type: cell-based
Description: FIG. 18 is a pair of images of cell cultures infected with Adenovirus and treated with control (peg-BSA) or peg-Arginase I drops, according to an example embodiment of the present invention.
In another exemplary embodiment, the present disclosure may be employed to treat other inflammation-associated ocular diseases, such as those induced by Adenovirus infection. Clinical presentation following Adenoviral infection of the eye may proceed even when antiviral compounds, such as cidofovir, are present. Clinical presentation of Adenovirus-associated ocular disease may be due to uncontrolled inflammatory responses to the infection even following viral clearance.

[6] = test system: VEGF-mediated migration of primary vascular endothelial cells; test: Endothelial cell migration in a scratch wound healing model; type: cell-based; settings: twenty-four hour period
Description: FIG. 25A is a series of images comparing effects of treatment with either control (peg-BSA) or peg-Arginase I on endothelial cell migration in a scratch wound healing model, according to an example embodiment of the present invention.
FIG. 25B is a bar graph showing a percentage of unhealed wound area after a twenty-four hour period for the wounds shown in FIG. 25A.
In another exemplary embodiment, the present disclosure may be employed to prevent and resolve corneal neovascularization and vascularization-associated edema. […] A key mediator and initiator of corneal vascularization may be vascular endothelial growth factor (VEGF).

[7] = test system: VEGF-mediated corneal vascularization; test: VEGF pellet corneal micropocket rabbit eye model; type: in vivo; settings: 10 U per 50 μl drop 4 times daily
Description: FIG. 26A is a pair of images of rabbit eyes having a VEGF pellet surgically implanted into a corneal micropocket and treated with vehicle or peg-Arginase I, according to an example embodiment of the present invention.
In an in vivo rabbit eye model system, the ability of peg-Arginase I to prevent VEGF-mediated corneal vascularization was assessed by implanting slow release VEGF pellets within a corneal micropocket 3 mm from the corneal limbus. Eyes were subsequently treated with either peg-Arginase I (right, OD eye) or peg-BSA vehicle control (left, OS eye) 4 times daily at a dose of 10 U per 50 μl drop. […] As shown, peg-Arginase I inhibits vision-threatening corneal vascularization, further enabling peg-Arginase I to prevent and ameliorate vision-threatening aspects of many ocular diseases. Moreover, inhibition of vascularization assists in suppressing deleterious inflammatory responses.

With `O=c1[nH]c(=O)n([C@H]2C[C@H](O)[C@@H](CO)O2)cc1C(F)(F)F` [1% TFT, triflourothymidine, reference compound] the “dendritic or geographic ulceration and clinical appearance” value (HSV-1 [1]) was “marked reduction in the presence of dendritic or geographic ulceration, and improved clinical appearance”.

For `Nc1nc2c(ncn2COCCO)c(=O)[nH]1` [acyclovir, reference compound], the “inhibition of drug-resistant viral replication” value [2] was “not functional against such strains, even at high doses”.

For `Nc1ccn(C[C@@H](CO)OCP(=O)(O)O)c(=O)n1` [cidofovir, reference compound], the “clinical symptoms / clinical disease presentation” value (Adenovirus Type 5) was “did not prevent clinical disease presentation”.

B1: peg-Arginase I: a formulation of arginase I that has been pegylated; applied as topical ophthalmic eye drop (protein, UniProt P05089 1-322, looked up)
Arginase-1: MSAKSRTIGIIGAPFSKGQPRGGVEEGPTVLRKAGLLEKLKEQECDVKDYGDLPFADIPNDSPFQIVKNPRSVGKASEQLAGKVAEVKKNGRISLVLGGDHSLAIGSISGHARVHPDLGVIWVDAHTDINTPLTTTSGNLHGQPVSFLLKELKGKIPDVPGFSWVTPCISAKDIVYIGLRDVDPGEHYILKTLGIKYFSMTEVDRLGIGKVMEETLSYLLGRKKRPIHLSFDVDGLDPSFTPATGTPVVGGLTYREGLYITEEIYKTGLLSGLDIMEVNPSLGKTPEEVTRTVNTAVAITLACFGLAREGNHKPIDYLNPPK
modifications: PEGylated
notes: a formulation of arginase I that has been pegylated; applied as topical ophthalmic eye drop
With B1 the “Calculated Times of Corneal Epithelium Closure” value (“Calculated Times” below) ([3]; 25% closure) was 14 h, the “Calculated Times” value ([3]; 50% closure) was 30 h and the “Calculated Times” value ([3]; 75% closure) was 38 h. The “eyes clinically cured of all ocular parameters” value ([3]; by day six) was “all eyes clinically cured”, the “time for 100% of eyes to reach clinical cure for epithelial defects relative to peg-vehicle” value ([3]; compared with peg-vehicle) was “two days faster” and the “Number of Eyes Clinically Cured for Area of Corneal Debridement” value (“Number … of Corneal Debridement” below) ([3]; day 0) was 0/5. For the same molecule, the “Number of Eyes Clinically Cured of All Combined Ocular Clinical Conditions” value ([3]; day 0) was 0/5, the “Number of Eyes Clinically Cured of Corneal Neovascularization” value (“Number … of Corneal Neovascularization” below) ([3]; day 0) was 5/5 (100%) and the “Number of Eyes Clinically Cured of Scleral Inflammation (Injection)” value (“Number of Eyes Clinically Cured … (Injection)” below) ([3]; day 0) was 5/5 (100%). The “Number … of Corneal Debridement” value ([3]; day 1) was 0/5, the “Number of Eyes Clinically Cured of All Combined Ocular Clinical Conditions” value ([3]; day 1) was 0/5 and the “Number … of Corneal Neovascularization” value ([3]; day 1) was 5/5 (100%). For the same molecule, the “Number of Eyes Clinically Cured … (Injection)” value ([3]; day 1) was 5/5 (100%), the “Number … of Corneal Debridement” value ([3]; day 2) was 0/5 and the “Number of Eyes Clinically Cured of All Combined Ocular Clinical Conditions” value ([3]; day 2) was 0/5. For the same molecule, the “Number … of Corneal Neovascularization” value ([3]; day 2) was 5/5 (100%), the “Number of Eyes Clinically Cured … (Injection)” value ([3]; day 2) was 5/5 (100%) and the “Number … of Corneal Debridement” value ([3]; day 3) was 3/5 (60%). For the same molecule, the “Number of Eyes Clinically Cured of All Combined Ocular Clinical Conditions” value ([3]; day 3) was 0/5, the “Number … of Corneal Neovascularization” value ([3]; day 3) was 5/5 (100%) and the “Number of Eyes Clinically Cured … (Injection)” value ([3]; day 3) was 5/5 (100%). The “Number … of Corneal Debridement” value ([3]; day 4) was 5/5 (100%), the “Number of Eyes Clinically Cured of All Combined Ocular Clinical Conditions” value ([3]; day 4) was 4/5 (80%) and the “Number … of Corneal Neovascularization” value ([3]; day 4) was 5/5 (100%). For the same molecule, the “Number of Eyes Clinically Cured … (Injection)” value ([3]; day 4) was 5/5 (100%), the “Number … of Corneal Debridement” value ([3]; day 6) was 5/5 (100%) and the “Number of Eyes Clinically Cured of All Combined Ocular Clinical Conditions” value ([3]; day 6) was 5/5 (100%). The “Number … of Corneal Neovascularization” value ([3]; day 6) was 5/5 (100%), the “Number of Eyes Clinically Cured … (Injection)” value ([3]; day 6) was 5/5 (100%) and the “eyes exhibiting no symptomology from the surgically-induced trauma” value ([3]; day four) was 80%. For the same molecule, the “virus-associated cytopathic effects, viral transmission to uninfected cells, cell-to-cell spread” value (HSV-1 [4]; HSV-1 infected cell cultures) was “blocked virus-associated cytopathic effects, viral transmission to uninfected cells, and cell-to-cell spread”, the “inhibition of production of infectious virus” value (HSV-1 [4]; even at high multiplicities of infection (MOIs)) was “greater than 1000 fold” and the “effectiveness compared with acyclovir” value (HSV-1 [4]; infectious viral yield, HSV-1) was “at least as effective as high doses of a common anti-herpetic, acyclovir”. The “inhibition of drug-resistant viral replication” value [2] was “highly efficient at inhibiting drug-resistant viral replication”, the antiviral effects (HSV-1 [5]) was “antiviral effects of peg-Arginase I were also observed” and the “clinical presentation of disease” value (HSV-1 [1]; five days of treatment) was “statistically improved clinical presentation of disease”. For the same molecule, the “infectious viral titers upon treatment” value (HSV-1 [1]; treatment begun after infection established (day three post infection titers matched)) was “barely detectable”, the “dendritic or geographic ulceration and clinical appearance” value (HSV-1 [1]) was “marked reduction in the presence of dendritic or geographic ulceration, and improved clinical appearance” and the toxicity to cells (Adenovirus; Adenovirus infected cell cultures) was “no toxicity to cells”. For the same molecule, the “Adenovirus-mediated cellular cytopathic effects” value (Adenovirus; vs peg-BSA control) was “prevents Adenovirus-mediated cellular cytopathic effects”, the “clinical symptoms / clinical disease presentation” value (Adenovirus Type 5) was “fewer clinical symptoms” and the “VEGF-mediated migration of primary vascular endothelial cells” value [6] was “prevents VEGF-mediated migration of primary vascular endothelial cells”. The “corneal edema resulting in corneal clouding and epithelial defects” value [7] was “prevented the appearance of corneal edema” and the “extent and areas of neovascularization of the cornea” value ([7]; compared to peg-BSA treated controls) was “significantly reduced”.

— US9011845B2, “Methods for treatment of inflammatory and infectious viral diseases” (priority 2012, dated 2015)
